Assay results from the nanobody polyreactivity screen of Harvey et al. (2022).

Experiment: yeast display, Sf9 membrane polyspecificity reagent, FACS + sequencing; frameworks hold sequencing errors
Method in brief: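 In a synthetic yeast display library (Saccharomyces cerevisiae BJ5465), nanobody expression was induced with galactose for 36–48 hours. FACS gates were set low and high (top ~1%) using anti-HA fluorescence for expression and streptavidin fluorescence for binding of the Sf9 membrane reagent. Each polyreactivity label is drawn from the gate of origin.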

**Q.** For “QVQLVESGGGLVQAGGSLRLSCAASGLTFYQYTMGWYRQAPGKERELVAAISRRGGSTYYADSVKGRFTISRDNAKNTVYLQMNSLKPEDTAVYYCAARALRYSSDFDYWGQGTQVTVSS”, which “polyreactivity (PSR sort gate)” value is on record?
**A.** The value was “high polyreactivity”.

**Q.** With “QVQLVESGGGLVQAGGSLRLSCAASGLTFYRYAMGWYRQAPGKEMELVAAIRVSGNTYYADSVKGPFTISRDNAKNTVYLEMNCLKPEDTAVYYCAAKPYYFYGMDYWGQGTQVTVSS” as the sequence, how does the “polyreactivity (PSR sort gate)” value read?
**A.** The value was “high polyreactivity”.

**Q.** Which “polyreactivity (PSR sort gate)” value does the source give for “QVQLVESGGGLVQAGGSLRLSCAASGLTFYRYAMGWYRQAPGKERELVAAIRSNVVTTYYADSVKGRFTISRDNAKNTVYLQMNSLKPEDTAVYYCNAVSYSFPIHRVRPTWYDYWGQGTQVTVSS” here?
**A.** Its value is “high polyreactivity”.

**Q.** For “QVQLVESGGGLVQAGGSLRLSCAASGLTFYRYAMGWYRQSPGKERELVAAISRGGTSTYYADSVKGRFTISRDNAKNTVYLQMSSLKPEDTAVYYCARLVKPYNYGRYGYWGQGTQVTVSS”, which “polyreactivity (PSR sort gate)” value is on record?
**A.** The value was “high polyreactivity”.

**Q.** Which “polyreactivity (PSR sort gate)” value does the source give for “QVQLVESGGGLVQAGGSLRLSCAASGLTFYSNAMGWYIQAPGKERELVASISKRGATTYYADSVKGRFTISRDIAKYTVYLQMNSQKAEDTAVYYCAAEYLRNQELGYQGVAILYVFWGQGTQVTVSS” here?
**A.** The value was “low polyreactivity”.

**Q.** With “QVQLVESGGGLVQAGGSLRLSCAASGLTFYSNAMGWYRQAPGKERELVAAITWRSVRTYYADSVKGRFTISRDNAKNTVYLQMNSLKPEDTAVYYCAAASASRHGEYDYWGQGTQVTVSS” as the sequence, how does the “polyreactivity (PSR sort gate)” value read?
**A.** The value was “low polyreactivity”.

**Q.** With “QVQLVESGGGLVQAGGSLRLSCAASGLTFYSNAMGWYRQAPGKERELVASISNGGSTNYADSVKGRFTISRDNAKNTVYLQMNSLKPEDTAVYYCAAEYSLRHRRYTFFAEMDYWGQGTQVTVSS” as the sequence, how does the “polyreactivity (PSR sort gate)” value read?
**A.** The value was “low polyreactivity”.

**Q.** With “QVQLVESGGGLVQAGGSLRLSCAASGLTFYSYAMGWYRQAPGKERELVAAISNTGGTNYADSVKGRFTISRDNAKNNVYFQMTSLKPEDTAVYYCNRTFYHYLYRGYGYWGQGTQVTVSS” as the sequence, how does the “polyreactivity (PSR sort gate)” value read?
**A.** The value was “low polyreactivity”.

**Q.** Which “polyreactivity (PSR sort gate)” value does the source give for “QVQLVESGGGLVQAGGSLRLSCAASGLTFYVYAMGWYRQAPGKERELVAAISSGGRTYYADSVKGRFTISRDNAKNTVYLQMNSLKPEDTAVYYCAARSPVWRTTEDYWGQGTQVTVSS” here?
**A.** Its value is “high polyreactivity”.

**Q.** Which “polyreactivity (PSR sort gate)” value does the source give for “QVQLVESGGGLVQAGGSLRLSCAASGLTFYYYAMGWYRQAPGKERELVAAISIGGSTDYADSVKGRFTISRDNAKNTVYLQMNSLKPEDTAVYYCNVDDNSEYDYWGQVTQVTVSS” here?
**A.** Its value is “low polyreactivity”.

**Q.** For “QVQLVESGGGLVQAGGSLRLSCAASGLTFYYYAMGWYRQAPGKERELVAAITWSGASTYYADSVKGRFTISRDNAKNTVYLQMNSLKPEDTAVYYCNARVWGGVEFGYWGQGTQVTVSS”, which “polyreactivity (PSR sort gate)” value is on record?
**A.** Its value is “high polyreactivity”.

**Q.** Which “polyreactivity (PSR sort gate)” value does the source give for “QVQLVESGGGLVQAGGSLRLSCAASGLTFYYYAMGWYRQAPGKERELVATISSGGNTNYADSVKGRFTISRDNAMNTVYLQMNSLKPEDTAVYYCNADRWFHYYRYNYWGQGTQVTVSS” here?
**A.** Its value is “high polyreactivity”.

**Q.** For “QVQLVESGGGLVQAGGSLRLSCAASGLTFYYYVMGWYRQAPGKERELVAAISSSGGNTYYADSVKGRFTISRDNEKNTVYLQMNSLKPEDTAVYYCAAGQKRTLDNYWGQGTQVTVSS”, which “polyreactivity (PSR sort gate)” value is on record?
**A.** The value was “high polyreactivity”.

**Q.** Which “polyreactivity (PSR sort gate)” value does the source give for “QVQLVESGGGLVQAGGSLRLSCAASGLTIAYYDMGWYRPAPGKERELVARISRGGSTNYADSVKGRFTISRDNAKNTVYLQMNSLKPEDTAVYYCNTGYVYPYKILMDYWGQGTQVTVSS” here?
**A.** The value was “low polyreactivity”.

**Q.** For “QVQLVESGGGLVQAGGSLRLSCAASGLTIDRNAMGWYRQAPGKERELVAAINWRGSRTYYADSVKGRFTISRDNAKNTVYLQMNSLKPEDTAVYYCAADWHTTYDYWGQVTQVTVSS”, which “polyreactivity (PSR sort gate)” value is on record?
**A.** Its value is “high polyreactivity”.

**Q.** For “QVQLVESGGGLVQAGGSLRLSCAASGLTIRYNAMGWYRQAPGKERELVARISRNGGRTYYADSVKGRFTISRDNAKNTVYLQMKSLKPEDTAVNYCNVVYFVTTSPGYDYWGQGTQVTVSS”, which “polyreactivity (PSR sort gate)” value is on record?
**A.** The value was “high polyreactivity”.

**Q.** Which “polyreactivity (PSR sort gate)” value does the source give for “QVQLVESGGGLVQAGGSLRLSCAASGLTISTYAMGWYIQAPGKDRELVATITYSGSSTYADSVKGRFTISRDNAKNTVYLQMNSLKPEDTAVYYCAAFTYHGNPSEYYPDTVGFYYWGQGTQVSVSS” here?
**A.** The value was “low polyreactivity”.

**Q.** Which “polyreactivity (PSR sort gate)” value does the source give for “QVQLVESGGGLVQAGGSLRLSCAASGLTIVNYAMGWYRQAPGKERELVAAITVNGGRTYYADSVKGRFTISRDNAKNTVYLQMNSLKPEDTAVYYCAAVYYRHWYTYSSDYWGQGTQVTVSS” here?
**A.** Its value is “high polyreactivity”.

**Q.** Which “polyreactivity (PSR sort gate)” value does the source give for “QVQLVESGGGLVQAGGSLRLSCAASGLTLAPYAMGWYRQAPGKERELVAVITRRGGRTYYADSVKGRFTISRDNAKNTVYLQMNSLKPEDTAVYYCNADTANYADGLDYWGQGTQVTVSS” here?
**A.** Its value is “low polyreactivity”.

**Q.** Which “polyreactivity (PSR sort gate)” value does the source give for “QVQLVESGGGLVQAGGSLRLSCAASGLTLFRNAMGWYRQAPGKERELVAAISSGGSTYYADSVKGRFTISRDNAKNTVYLQMNSLKPEDTAVYYCATDSVSPVEEEDYWGQGTQVTVSS” here?
**A.** Its value is “low polyreactivity”.

**Q.** For “QVQLVESGGGLVQAGGSLRLSCAASGLTLHGNAMGWYRQAPGKERELVATITSSGGSTFYADSVKGRFTISRDNAKNTVYLQMNSLKPEDTAVYYCNADAPYSDDYYVRFDYWGQGTQVTVSS”, which “polyreactivity (PSR sort gate)” value is on record?
**A.** The value was “low polyreactivity”.

**Q.** Which “polyreactivity (PSR sort gate)” value does the source give for “QVQLVESGGGLVQAGGSLRLSCAASGLTLQGYVMGWSRQAPGKDRELVATISYSGGSTRYADSVKGRFTISRDNAKNTVYLQMNSLNPEDTAVYYCNRDSFHYYAERDYWGQGTQVTVSS” here?
**A.** Its value is “low polyreactivity”.

**Q.** With “QVQLVESGGGLVQAGGSLRLSCAASGLTLQPYAMGWSRQAPRNERELVAAITSGGSTYYADSVKGRFTISRDNAKNTVYLQMNSLKPEDTAVYYCAATVSYDFGYVAVSYDYWGQGTQVTVSS” as the sequence, how does the “polyreactivity (PSR sort gate)” value read?
**A.** The value was “low polyreactivity”.

**Q.** For “QVQLVESGGGLVQAGGSLRLSCAASGLTLQRYTMGWYRQAPGKERELVAAISRSGGGTYYADSVKGRFTISRDNAKNTVYLQMNSLKPEDTAVYYCNKVRGAVPWFDMDYWGQGTQVTVSS”, which “polyreactivity (PSR sort gate)” value is on record?
**A.** The value was “high polyreactivity”.

**Q.** Which “polyreactivity (PSR sort gate)” value does the source give for “QVQLVESGGGLVQAGGSLRLSCAASGLTLRNYAMGWYRQAPGKERELVAAITTGGGRTYYADSVKGRFTISRDNAKNTVYLQMNSLKPEDTAVYYCAAERAILSSDKQSLWRFDYWGQGTQVTVSS” here?
**A.** The value was “low polyreactivity”.

**Q.** Which “polyreactivity (PSR sort gate)” value does the source give for “QVQLVESGGGLVQAGGSLRLSCAASGLTLRRYAMGWYRQAPGKETELVAGITSGGSTYYADSVKGRFTISRDNAKNTVYLQMYSLKPEDTAVYYCAARVRKYYKPYGYWGQGTQVTVSS” here?
**A.** The value was “high polyreactivity”.

**Q.** For “QVQLVESGGGLVQAGGSLRLSCAASGLTLSGNAMGWYRQAPGKERELVAAITGRGGSTTYADSVKGRFTISRDNAKNTVYLLMNSLKPEDTAVYYCAADGRWYWDYEYWGQGTQVTVSS”, which “polyreactivity (PSR sort gate)” value is on record?
**A.** The value was “low polyreactivity”.

**Q.** For “QVQLVESGGGLVQAGGSLRLSCAASGLTLSGYAMGWYRQAPGKERELVAAISYTGGSTYYADSVKGRFTISRDNAKNTVYLQMNSLKPEDTAVYYCAARAGSRSFDYWGQGTQVTVSS”, which “polyreactivity (PSR sort gate)” value is on record?
**A.** Its value is “high polyreactivity”.

**Q.** Which “polyreactivity (PSR sort gate)” value does the source give for “QVQLVESGGGLVQAGGSLRLSCAASGLTLSYNAMGWYRQAPGKERELVAAIRSGGSTNYADSVKGRFTISRDNAKNTVYLQMNSLKPEDTAVYYCAARFRYLPYRYGRYQSGYEYWGQGTQVTVSS” here?
**A.** The value was “high polyreactivity”.

**Q.** With “QVQLVESGGGLVQAGGSLRLSCAASGLTLSYYAMGWYRQAPGKERELVATISWRTGSTYYADSVKGRFTISRDNAKNTVYLQMNSLKPEDTAVYYCNARGFQYSYSHLIYYPYDYWGQGTQVTVSS” as the sequence, how does the “polyreactivity (PSR sort gate)” value read?
**A.** The value was “high polyreactivity”.

**Q.** For “QVQLVESGGGLVQAGGSLRLSCAASGLTLVTYAMGSYRQAPGKERELVAAINSGGSTNYADSVKGRFTISRDNAKNTVYLQMNSLKPEDTAVYYCNADRVSPATYDYWGQGTQVTVSS”, which “polyreactivity (PSR sort gate)” value is on record?
**A.** The value was “low polyreactivity”.
